Measured values published in publication PMC12737490, “Beta Toxins Isolated from the Scorpion Centruroides hirsutipalpus (Scorpiones; Buthidae) Affect the Function of Sodium Channels of Mammals” (Toxins, 2025).

B1: Chirp7 (peptide)
chain: KEGYLVNHSTGCKYECFKLGDNDYCLRECRQQYGKGAGGYCYAFGCWCTHLYEQAVVWPLPKKTCN-NH2
modifications: disulfide (positions not given here); also: four disulfide bridges, pairing not given here
B2: Chirp9 (peptide)
chain: KEGYIVDYHTGCKYTCAKLGDNDYCVRECRLRYYQSAHGYCYAFACWCTHLYEAAVVWPLPNKRCK-NH2
modifications: disulfide (positions not given here); also: four disulfide bridges, pairing not given here

What was measured:
Type in all cases: cell-based, human
hNav 1.1 = assay: Patch-clamp macroscopic sodium currents, hNav1.1 in HEK cells; conditions: 200 nM toxin, mean ± SE of 5 cells (3–5 cells); for I/Imax (residual peak current): Chirp9 value marked * (p<0.05 paired t-test); for slope of activation after toxin: control 7.7 ± 0.7 (Chirp7 cells), 7.2 ± 0.3 (Chirp9 cells); for V0.5 of activation after toxin: control -24.8 ± 0.8 (Chirp7 cells, toxin value marked *), -22.8 ± 0.3 (Chirp9 cells), * = p<0.05 paired t-test; for slope of inactivation after toxin / V0.5 of inactivation after toxin: steady-state inactivation; for slope of inactivation after toxin: control 6.7 ± 0.1 (Chirp7 cells), 6.8 ± 0.2 (Chirp9 cells); for V0.5 of inactivation after toxin: control -59.9 ± 0.2 (Chirp7 cells), -59 ± 0.2 (Chirp9 cells)
Protocol: (§1) Recordings of macroscopic currents from sodium channels. Human voltage-gated sodium channels (hNav 1.1, hNav 1.2 and hNa 1.6) were stably expressed in HEK cells. Cells were maintained at 37 ◦C with 5% CO2 in a humidified atmosphere. The growth medium consisted of high-glucose Dulbecco’s Modified Eagle Medium (DMEM, Sigma Aldrich, Naucalpan de Juarez, Estado de Mexico, Mexico), supplemented with 10% Fetal Bovine Serum (ByProductos, Guadalajara, Jalisco, Mexico) and 500 μg/mL of the antibiotic G418 (Sigma Aldrich, Naucalpan de Juarez, Estado de Mexico, Mexico). The extracellular solution was composed of (in mM): 130 NaCl, 5 KCl, 2 CaCl2, 2 MgCl2, 10 HEPES, and 5 glucose, with the pH adjusted to 7.3 using NaOH. The intracellular solution contained (in mM): 105 CsF, 27 CsCl, 5 NaCl, 2 MgCl2, 10 EGTA, and 10 HEPES, with the pH also adjusted to 7.3 with CsOH. Solutions were delivered to the patched cell via an active perfusion system connected to a variable-speed syringe pump (Model A-99, Razel Scientific Instruments, Fairfax, VT, USA), with a perfusion rate of approximately 1 μL/s. Patch pipettes were made from borosilicate glass capillaries (Warner Instruments, Hamden, CT, USA) using a vertical puller (Model P-30, Sutter Instrument, Novato, CA, USA). The pipettes were filled with the internal solution and had resistance ranging from 1.5 and 3 MΩ. Sodium currents were elicited by 100 ms depolarization ranging from −110 to 30 mV in 10 mV steps, followed by a fully activating step at −10 mV for 50 ms. To better appreciate the effects of scorpion β-sodium toxins, channels were primed by means of a 5 ms depolarization at 50 mV, applied 50 ms before the depolarization steps, as previously described in Cestele et al. 1998 [17]. To ensure complete recovery from inactivation, cells were maintained at −120 mV for 280 ms before each step, while holding potential was set at −100 mV. Currents were acquired using a MultiClamp 700A amplifier and a DigiData 1440A digitizer (Molecular Devices, CA, USA).
(§2) For the activation curve, conductance (G) was calculated from current (I) elicited during depolarization steps by means of the equation G = I/(Vm − ENa), where I is the current elicited at membrane potential Vm, and ENa is the reversal potential of Na^+ ions, calculated experimentally for each cell. Conductance was normalized to its maximal level and plotted against the corresponding membrane potential. For the steady-state inactivation curve, currents elicited at −10 mV (after preconditioning depolarization from −110 to 30 mV) were plotted against the preconditioning potentials. Data from activation and from steady-state inactivation were fitted using a Boltzmann equation: y = A2 + (A1 − A2)/(1 + exp((x − x0)/dx)) where A1 is the initial value, A2 is the final value, x0 is the potential of half-activation (or half-inactivation) and dx is the slope. […]
(§3) Figure S1. Recordings of macroscopic currents from sodium channels. Sodium currents in B) were elicited by the stimulation protocol depicted in A): currents were elicited by 100 ms depolarization ranging from -110 to 30 mV in 10 mV steps, followed by a fully activating step at -10 mV for 50 ms.
(§4) A 5 ms depolarization at 50 mV was applied 50 ms before the depolarization steps to primed the channels. Peak currents obtained during the step depolarization from -110 to 30 mV (C and D, black circle in control and open circle after toxin application) were used to calculate the conductance and construct the activation curves. Currents recorded during the step at -10 mV (C and D, black square in control and open square for the toxin), were used to construct the inactivation curves. […]

hNav 1.6 = assay: Patch-clamp macroscopic sodium currents, hNav1.6 in HEK cells; conditions: 200 nM toxin; for A: fraction of channels bound to the toxin: activation; for A: fraction of channels bound to the toxin / slope of activation after toxin / V0.5 of activation after toxin: sum of two Boltzmann fit; for A: fraction of channels bound to the toxin / I/Imax (residual peak current) / slope of inactivation after toxin / V0.5 of inactivation after toxin / slope of activation after toxin / V0.5 of activation after toxin: mean ± SE of 5 cells (3–5 cells); for I/Imax (residual peak current): both values marked * (p<0.05 paired t-test); for slope of inactivation after toxin / V0.5 of inactivation after toxin: steady-state inactivation; for slope of inactivation after toxin: control 6.6 ± 0.3 (Chirp7 cells), 6.3 ± 0.1 (Chirp9 cells); for V0.5 of inactivation after toxin: control -55.8 ± 0.3 (Chirp7 cells), -65.0 ± 0.1 (Chirp9 cells); for slope of activation after toxin: control 5.6 ± 0.22 (Chirp7 cells), 7.0 ± 0.4 (Chirp9 cells); for slope of activation after toxin / V0.5 of activation after toxin: both toxin values marked * (p<0.05); for V0.5 of activation after toxin: toxin-bound component, control -22.8 ± 0.3 (Chirp7 cells), -22.5 ± 0.3 (Chirp9 cells)
Protocol: as §1
For the activation curve, conductance (G) was calculated from current (I) elicited during depolarization steps by means of the equation G = I/(Vm − ENa), where I is the current elicited at membrane potential Vm, and ENa is the reversal potential of Na^+ ions, calculated experimentally for each cell. Conductance was normalized to its maximal level and plotted against the corresponding membrane potential. For the steady-state inactivation curve, currents elicited at −10 mV (after preconditioning depolarization from −110 to 30 mV) were plotted against the preconditioning potentials. Data from activation and from steady-state inactivation were fitted using a Boltzmann equation: y = A2 + (A1 − A2)/(1 + exp((x − x0)/dx)) where A1 is the initial value, A2 is the final value, x0 is the potential of half-activation (or half-inactivation) and dx is the slope.
For hNav 1.6 currents, activation data after toxin exposure were fitted using the sum of two Boltzmann equations: y = y0 + A (frac/(1 + exp((x − x01)/k1)) + (1 − frac)/(1 + exp((x − x02)/k2))) where the sum is 1, x01 and dx1 are the same as under control conditions, and “frac” represents the fraction of channels bound to the toxin. Data are presented as means ± standard error (SE). The paired sample t-test (also known as the dependent samples t-test) was applied by comparing, for each individual cell recorded, the electrophysiological parameter of interest (e.g., peak current, V½ of activation or inactivation) before toxin application and after toxin application. Significant difference was accepted with a confidence level “p” set at 0.05. […]
Figure S1. Recordings of macroscopic currents from sodium channels. Sodium currents in B) were
elicited by the stimulation protocol depicted in A): currents were elicited by 100 ms depolarization
ranging from -110 to 30 mV in 10 mV steps, followed by a fully activating step at -10 mV for 50 ms. […]

hNav 1.2 = assay: Patch-clamp macroscopic sodium currents, hNav1.2 in HEK cells; conditions: 200 nM toxin; for I/Imax (residual peak current) / slope of activation after toxin / V0.5 of activation after toxin / slope of inactivation after toxin / V0.5 of inactivation after toxin: mean ± SE of 5 cells (3–5 cells); for slope of activation after toxin: control 5.4± 0.3 (Chirp7 cells), 7.6 ± 0.4 (Chirp9 cells); for slope of activation after toxin / slope of inactivation after toxin / V0.5 of inactivation after toxin: Chirp9 value marked * (p<0.05); for V0.5 of activation after toxin: control -21.1 ± 0.4 (Chirp7 cells), -26.5 ± 0.5 (Chirp9 cells); for slope of inactivation after toxin / V0.5 of inactivation after toxin: steady-state inactivation; for slope of inactivation after toxin: control 6 ± 0.2 (Chirp7 cells), 5.6 ± 0.2 (Chirp9 cells); for V0.5 of inactivation after toxin: control -56.1 ± 0.2 (Chirp7 cells), -55.5 ± 0.3 (Chirp9 cells)
Protocol: as §1, §2, §3, §4

| Molecule | I/Imax (residual peak current) (hNav 1.1) | slope of activation after toxin (hNav 1.1) | V0.5 of activation after toxin (hNav 1.1) | slope of inactivation after toxin (hNav 1.1) | V0.5 of inactivation after toxin (hNav 1.1) | effect on activation curve (hNav 1.6) | effect on peak current (hNav 1.6) | A: fraction of channels bound to the toxin (hNav 1.6) | I/Imax (residual peak current) (hNav 1.6) | slope of inactivation after toxin (hNav 1.6) | V0.5 of inactivation after toxin (hNav 1.6) | slope of activation after toxin (hNav 1.6) | V0.5 of activation after toxin (hNav 1.6) | I/Imax (residual peak current) (hNav 1.2) | slope of activation after toxin (hNav 1.2) | V0.5 of activation after toxin (hNav 1.2) | slope of inactivation after toxin (hNav 1.2) | V0.5 of inactivation after toxin (hNav 1.2) | effect on inactivation kinetic (hNav 1.6; residual current at potentials greater than −30 mV) | effect on inactivation (hNav 1.2) |
| --- | --- | --- | --- | --- | --- | --- | --- | --- | --- | --- | --- | --- | --- | --- | --- | --- | --- | --- | --- | --- |
| B1 | 0.98±0.02 | 6.9 ± 0.5 | -26.9 ± 0.6 mV | 6.4 ± 0.1 | -60.9 ± 0.2 mV | leftward shift in the activation curves | reduced the peak current | 0.34 ± 0.04 | 0.88 ± 0.03 | 7.2 ± 0.4 | -58 ± 0.4 mV | 9.4 ± 1.9 | -52.5 ± 3.4 mV | 1 ± 0.02 | 5.9 ± 0.3 | -22 ± 0.4 mV | 6.2 ± 0.2 | -56.9 ± 0.2 mV |  |  |
| B2 | 0.94 ± 0.02 | 8.2 ± 0.2 | -23.6 ± 0.2 mV | 7.3 ± 0.2 | -60.1 ± 0.2 mV | leftward shift in the activation curves | reduced the peak current | 1 ± 0.1 | 0.29 ± 0.03 | 6.9 ± 0.4 | -67.1 ± 0.5 mV | 15.5 ± 0.9 | -40.9 ± 0.2 mV | 0.85 ± 0.07 | 10.8 ± 0.4 | -26.8 ± 0.5 mV | 7.6 ± 0.4 | -61.8 ± 0.4 mV | slows down the inactivation kinetic by promoting a residual current | shifted inactivation to more negative potential |
